Laboratory results reported in patent US20090155236A1, “Peptide sequence for modulation of delta protein kinase c” (NATIONAL INSTITUES OF HEALTH (NIH), U.S. DEPT OF HEALTH AND …, priority 2004, published 2009).

Target: recombinant full-length delta PKC (rat)
Experiment: ELISA, both in the absence and in the presence of calcium

B1: annexin I (protein)
chain: AMVSEFLKQAWFIENEEQEYVQTVKSSKGGPGSAVSPYPTFNPSSDVAALHKAIMVKGVDEATIIDILTKRNNAQRQQIKAAYLQETGKPLDETLKKALTGHLEEVVLALLKTPAQFDADELRAAMKGLGTDEDTLIEILASRTNKEIRDINRVYREELKRDLAKDITSDTSGDFRNALLSLAKGDRSEDFGVNEDLADSDARALYEAGERRKGTDVNVFNTILTTRSYPQLRRVFQKYTKYSKHDMNKVLDLELKGDIEKCLTAIVKCATSKPAFFAEKLHQAMKGVGTRHKALIRIMVSRSEIDMNDIKAFYQKMYGISLCQAILDETKGDYEKILVALCGGN
- percent binding: 70%
